Protein production data for 25 sequences are collected here from a protein production outcome set (Wang et al. 2014).

The data set is described as follows: label from the status in PepcDB records.
With “PDHGKAEWFRGADGATLRAATFFPAGPARGSVVLSPGRSEPLEKYFEVVDDLLARDFAVLLHDWRGQGLSARALPDRLKGHARGFKTFVSDYEALLDAFETRMPKPWIAVSHSMGGCLTTLALAQGETRFAAAVLSAPMLGLNTAGVPPWLARPLAFVMSRVGLAGEYVQTPYDPLTQTFQGDGLTHDETRYDRYQAQLRAHPEIALGGMTWGWADFAISACAWLRRSKSVEAIAIPVIILGAELDNRVLNADSESIARRIPKGRYVEVPGAFHEILVETDARRALFWQAFDE”, the protein production entry is reported as “failed”.
To “MGSSHHHHHHSSGLVPRGSHMLEGIIEEKALFVTCGATVPFPKLVSCVLSDEFCQELIQYGFVRLIIQFGRNYSSEFEHLVQERGGQRESQKIPIDQFGCGDTARQYVLMNGKLKVIGFDFSTKMQSIIRDYSDLVISHAGTGSILDSLRLNKPLIVCVNDSLMDNHQQQIADKFVELGYVWSCAPTETGLIAGLRASQTEKLKPFPVSHNPSFERLLVETIYS” belongs “not failed”.
To “MTFRDLLSVSFEGPRPDSSAGGSSAGGGGGSAGGAAPSEGPAVGGVPGGAGGGGGVVGAGSGEDNRSSAGEPGSAGAGGDVNGTAAVGGLVVSAQGVGVGVFLAAFILMAVAGNLLVILSVACNRHLQTVTNYFIVNLAVADLLLSATVLPFSATMEVLGFWAFGRAFCDVWAAVDVLCCTASILSLCTISVDRYVGVRHSLKYPAIMTERKAAAILALLWVVALVVSVGPLLGWKEPVPPDERFCGITEEAGYAVFSSVCSFYLPMAVIVVMYCRVYVVARSTTRSLEAGVKRERGKASEVVLRIHCRGAATGADGAHGMRSAKGHTFRSSLSVRLLKFSREKKAAKTLAIVVGVFVLCWFPFFFVLPLGSLFPQLKPSEGVFKVIFWLGYFNSCVNPLIYPCSSREFKRAFLRLLRCQCRRRRRRRPLWRVYGHHWRASTSGLRQDCAPSSGDAPPGAPLALTALPDPDPEPPGTPEMQAPVASRRKPPSAFREWRLLGPFRRPTTQLRAKVSSLSHKIRAGGAQRAEAACAQRSEVEAVSLGVPHEVAEGATCQAYELADYSNLRETDI” belongs “failed”.
Next, “SRLPKSPPYTAFLGNLPYDVTEESIKEFFRGLNISAVRLPREPSNPERLKGFGYAEFEDLDSLLSALSLNEESLGNKRIRVDVADQAQDKD”: “not failed”; “MGRIIGIDLGTTTSEIAYVKDGKPCIIRNIEEGDEHAIPSVVSIEGDEIKVGKKAKNQILLKPELTVAEVKRVMGTENIIQIQGKEYRPEEISALILKKLKEVAEYFLGEEVEEAVITVPANFNDIQRKATKNAGEIAGFKVERIINEPTAAAMAYGVDNLDKNGNILVYDFGGGTFDVTILEMFNGVLDVKVSRGNNYLGGKDIDNKLIDHVVNEFNKSTGVKLDTSDSRILARLKEGVEEAKKTLSTSKMAEIVLPYISADKDNNPINLEMVLTREEFEFNVKEIIDSTEDIVNEALEDANITDNEIDTVLLVGGSSRIPYVRNMLEKRFKGKIARGVNPDEAVALGASVQAAIKNDIPVGDSGTIIVTDTCNYTLGVALKGGIFDPIIDRDSKLPANVTKRYCTVMDNQTEVLVSVYEGESRYVSDNTLIDEFILSGIPKADTGKEKIDITFTYDLNGILNVSAEILSTGDEISKIMSTKGLSKEEIQDLKEVVSSNENNNELVPWKSANLFKLVEPNFRLAERKIPMLPSADREKLQEIMSDMKDAIVDNDKMALMKLDEELTDFLFDFVN”: “failed”.
For the sequence “MSTTTATLRDAIPDTRSLVTWAAVLNAEFILILGYVVNTAQPATDPFLLVFPFIWLNIAGLVALRVRPELPSRRRTIGSVVIALGYLLVLGYVGGVYGTGGQGTGLRLVTQAPPGFSPTVVFSGATLSVVLIPWKVAGYLALSYLVFVTAVDASGGAVGGIVGLFSCVSCVLPILASILGGFVGVGATLSQAALSQSYGLSTVVFVTSVGLLYGVHRFDVTLVGRLQALVDRP”, the protein production entry is listed as “failed”.
To “MSGAGKKIADVAFKASRTIDWDGMAKVLVTDEARREFSNLRRAFDEVNTQLQTKFSQEPEPIDWDYYRKGIGAGIVDKYKEAYDSIEIPKYVDKVTPEYKPKFDALLVELKEAEQKSLKESERLEKEIADVQEISKKLSTMTADEYFEKHPELKKKFDDEIRNDNWGY” belongs “failed”; to “MAYGDKDEVLSVDVGSNAKVMKHLDGDDAMKKAQVRGRSGQEFSKETTKMMMKKTTKKETNVEEEDDLVAYTADYWKPRHHPPKNN”, “failed”; to “MVNYKEKLDEAIHLTQQKGFEQTRAEWLMLDVFQWTRTDFVVHMHDDMPKAMIMKFDLALQRMLLGEPIQYIVGFASFYGRTFDVNSNCLIPRPETEEVMLHFLQQLEDDATIVDIGTGSGVLAITLKCEKPDLNVIATDISLEAMNMARNNAEKHQSQIQFLTGDALKPLINEGIKLNGLISNPPYIDEKDMVTMSPTVTRFEPHQALFADNHGYAIYESIIEDLPHVMEKGSPVVFEIGYNQGEALKSIILNKFPDKKIDIIKDINGHDRIVSFKW”, “failed”.
To “MHILVTGFAPFDNQNINPSWEAVTQLEDIIGTHTIDKLKLPTSFKKVDNIINKTLASNHYDVVLAIGQAGGRNAITPERVAINIDDARIPDNDDFQPIDQAIHLDGAPAYFSNLPVKAMTQSIINQGLPGALSNSAGTFVCNHTLYHLGYLQDKHYPHLRFGFIHVPYIPEQVIGKPDTPSMPLEKIVAGLTAAIEAISNDEDLHLALGTTE” belongs “failed”.
Next, “MQDKYGVNHDHYCYESSDVLINLLNIRDPDELTQAEADFNLIRYSEYCSDLDELEDFDSNHFLNLHWVLFQDIYEWAGTIRDVDISKANTRFCTCSRVEPELNKAISRIPLIRFCRNKHELVALVADIFSDLNVVHPFREGNGRTTRFFFEELLHVAGYRIEWPVITKEEWVDANIHGYFGQLHKLEVIFDAAIIESLEHHHHHH”: “failed”; “QKVKTIFPHTAGNNKTLLSFAQGDVLTLLIPEEKDGWLYGEHDTTKARGWFPSSYTKLL”: “not failed”.
Take “ATFFIKMNQKTVPEFKNKHLRLAISQAINKKGYVNSVLNDGSLPSNNFTGVGTADTPDGKDFARTIKSPLKFNPDLAKKNWREAQKELGKNKFTFTMNTQDTPASKIAAEYIKSQIESHLPGVTLKIKQMPFKQKTTLELANNYEASYSGWSPDYPDPTAFLQTMTKNNAQNNTDWSNKEYDQLLKDANSKLLRKLGERNTSLQKAEYILLHEAPVAPVYQ”: the protein production result is recorded as “failed”.
To “MSWAAPDDIFFSTSLAAYLDKKLLVLLRDGRKLMGLLRSFDQFANAVLEEAYERVIVGDLYCDIPLGLYIIRGENVVLIGELDVEKEELPAHMVQVPEAEIKRAQKAEKEEMLLKGTMRKRMEFLDLD” belongs “failed”; to “MKRTFKMALIASLAVGGSYVLYGSQNKEELSDLALSNVEALTLGTKDCMYQRNSRCYELVVGPPGEPVIIETSEEANWVNRYTIPE”, “failed”.
For “MSLLPLPFTVHFDPTNQELLLSGKMRPESAAEITDALKLVQQSLEKYSGVVYVNVKRLTHINMTAFAALADILAASSRIRPERKIVIITSSVVAWSTSLFQTLAASQPSLSVEVYDSAFYPGQSFVEDETFIPILRTQTKMTWRHERELLPRHGLRSGLVIADICCGIGDFAALVQREFKPARLVALDHSVRSLEYARRVAADFDLQGIEYTYGDASQMLLRDNQFDFVTCRHSLQIFNRPEMLLRELYRICKPGGRVYITNEKNSHCLGEPHAESIKWTYEEVAKLFKHFDMDVEMGPKSRHLLADAGFDNIKVDSFMVTNLDGDPQDFADIIEAWENVYAGEMAVRRGDSSDFIRRFRQGFKDHVFAALHPKGYAGWPIWAASGRKPL”, the protein production result is given as “failed”.
To “GQLAQDGVPEWFHGAISREDAENLLESQPLGSFLIRVSHSHVGYTLSYKAQSSCCHFMVKLLDDGTFMIPGEKVAHTSLDALVTFHQQKPIEPRRELLTQPCRQKD” belongs “not failed”.
With “MTTTLSPDTARQIVPPEERYAAELAFLAAYDDGPRPPAWRLTPRAVVTFVMGSDGRALRLPEGAETPEGVPRRLTVEGKFVGDRSLVERCVVTLAGERGLLLVGEPGTAKSMLSELLSAAVCGTSGLVVQGTAGTTEDQLKYGWNYALLLAQGPSRTALVPSPVLTAMARGGIARVEEVTRCLPEVQDALVSLLSERRIAVPELSGTDDALAHAAPGFNLIATANLRDKGVSEMSAALKRRFNFETVGPIPDLDAETALVRSQARASVERAGAPFKVDEAVLEALVVAFRDLREGRSTEGWEVERPSTVMSTAEAVSVAGALGLAAAYFPGDRDVLGLLPGHLLGVVRKDDPADAARLRGYWDGPVRRRAEQGSATWRTLWDLRTVLEGLEHHHHHH”, the protein production entry is listed as “failed”.
To “MSLVTYQTIKVRFQASVCYITFHRPEANNTINDTLIEECLQVLNQCETSTVTVVVLEGLPEVFCFGADFQEIYQEMKRGRKQASSQEPLYDLWMKLQTGPYVTISHVRGKVNAGGLGFVSATDIAIADQTASFSLSELLFGLYPACVLPFLIRRIGRQKAHYMTLMTKPISVQEASEWGLIDAFDAESDVLLRKHLLRLRRLNKKGIAHYKQFMSSLDHQVSRAKATALTANQDMFSDPQNQMGIIRYVETGQFPWEDQEGHHHHHH” belongs “not failed”; to “MSKVNQQDIDKLIELVGGRGNIATVSHCITRLRFVLNDPAIARPKEIEQLRMVKGCFTNAGQFQVVIGTEVGDYYKALLATTGQTSADKEQVKQA”, “not failed”.
To “MGRDASSYFHLVFFLALTLLAGCSTTGSAPETREAGAGPEELMAAVRANEDRAVLELLSMGVRPDAQARAEQTPLMVAATNGNRRIVRLLLAAGAEVNARSADGNTAVIQAAENGHLAVVRALLAAGANVNVSQGGESLLMKVVASGDLLTAEMLLAAGADVHYRRADGTTALDLARASNNQDLEMLLVQAGAAR” belongs “failed”.
Next, “IPLEQGIEFLSVNVEEDSPVVGKKLKDLPLPRDSIIAAIVRGGVLVVPRGDTEILSGDKLYVIVSAEAKETVEETLLGR”: “not failed”.
Turning to “MSRRTVSLTVLALVLALLILVAPDVLLVIFAGVLFGVFLSAGGGLVQRVTGLQRGAGIALFIVLVLLALTGAFLAFAPAMFEQADALARQLPPAFEDLRDRISAYSWGPTLLSRLAPSRLLSSDGGFASTAVSATFGALGNVVIILFIGLYTAVDPGLYRRGLRALLAPPLRPRGDEVLAIADGTLRGWLGGQIISMTVVGVLTWLGLWLIGIPLAFILGLIAALLTFIPNIGPVLSAVPALLLALPEGAEQVGLVLAVFLTVQTFESYLVTPLIQKERVALPPALIISAQLLMGVLFGLMGLLLATPLAALALALVREVYVHDYLEEGPAKAQGPDRAD”, the protein production result is given as “failed”.
To “MSLNSAAQAQSSDPVVIGCPAPLTGIVAADGIEFQRGIQMAADEINAVGGILGRPIELVFADTQSKGVDVVIQSAQRLIDRDNASALIAGYNLENGTALHDVAADAGVIAMHANTVAVHDEMVKSDPDRYWGTFQYDPPETLYGGGFLKFLKDIEDNGEFSRPNNKIAIITGPGIYSVNIANAIRDGAGEYGYDVSLFETVAIPVSDWGPTLAKLRADPPAVIVVTHFYPQDQALFMNQFMTDPTNSLVYLQYGASLAAFRDIAGDNSVGVTYATVLGTLQDEMGDAFAKAYKERYGDLSSTASGCQTYSALYAYSIAAALAGGPGAPYDDVQNKAVADRLRSLIFRGPVGTMRFHADTQSAWSYPTETNDPSLGMPHIFSQIFDKAEDGVLIAPAPYKKAGFKMPPWMKGEGHHHHHH” belongs “not failed”; to “MKKAVFSTLVIGLLSFQAHADYVAQPQSIAAQAARYSVMSIPELTQAAKSGQAGAQFYLGAHYQHGKNIPKDDKQAFTWFKAAADQGLSPAQLNVGRMYADGVGVAKNEAMARKYFEKAASNGDNRASYNLAMMEEQKKNYQGAYQWYELSTRDGMLDNKVINMSQSKKTALAANLTQDQIRQAVDRADKWIQAQ”, “failed”.
